The target of data set [1] is T1, B. subtilis DnaG primase (Bacillus subtilis, UniProt P05096 1-603, limits assumed).
T1 construct: Recombinant
T1 sequence (looked up): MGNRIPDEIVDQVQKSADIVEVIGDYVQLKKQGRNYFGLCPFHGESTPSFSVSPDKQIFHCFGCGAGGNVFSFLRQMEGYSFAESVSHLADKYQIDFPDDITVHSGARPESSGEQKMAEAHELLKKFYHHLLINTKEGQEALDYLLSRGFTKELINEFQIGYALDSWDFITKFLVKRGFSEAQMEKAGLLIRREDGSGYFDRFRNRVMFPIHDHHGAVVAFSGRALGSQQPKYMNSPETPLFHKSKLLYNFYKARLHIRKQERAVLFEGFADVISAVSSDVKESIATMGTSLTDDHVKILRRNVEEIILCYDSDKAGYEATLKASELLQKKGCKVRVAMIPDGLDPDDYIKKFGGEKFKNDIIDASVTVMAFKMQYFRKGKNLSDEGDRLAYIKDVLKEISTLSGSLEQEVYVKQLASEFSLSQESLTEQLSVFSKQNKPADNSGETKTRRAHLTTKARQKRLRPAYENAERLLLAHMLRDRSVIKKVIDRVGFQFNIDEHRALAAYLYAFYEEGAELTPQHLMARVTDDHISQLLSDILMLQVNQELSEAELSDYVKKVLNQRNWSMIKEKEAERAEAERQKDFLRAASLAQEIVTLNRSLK
Description: native gel shift assay, 10 ug G40P construct with 10 ug primase. From the text:
G40P/DnaB replicative helicases bind DnaG primase at the replication fork, this interaction is important for coordinating DNA unwinding by the helicase with RNA primer synthesis by the primase. We investigated the requirement of N-terminal domain of G40P in primase binding using the N-terminal deletions. […] We next examined if the isolated N-terminal domain of G40P can bind primase. The two constructs containing only the N-terminal α-hairpin and N-globe domains (N149 and N171) had no detectable primase binding in native gel shift assays (FIGS. 4d and 11). Both constructs behaved like monomers in gel filtration (data not shown).
Interactions between G40P and B. subtilis DnaG primase were examined using a native gel shift assay. 10 ug of various G40P constructs were mixed with 10 ug primase in a buffer containing 25 mM TrisHCl pH 8.0, 50 mM NaCl, 5 mM MgCl₂, and 1 mM ATP-γ-S and incubated for 30 minutes on ice. The protein mixtures were then analyzed by 6% polyacrymamide native gel electrophoresis at 150 voltage for one hour at 4 degrees C. The gel was stained by Coomassie blue for detection.
Background: A gel shift assay detects complexes by their altered migration in electrophoresis.

The target of data set [2] is T2, B. subtilis DnaG primase (Bacillus subtilis, UniProt P05096).
T2 construct: GST (N); made in house; host or cells: E. coli
Put plainly: Native gel shift assay of primase binding. The following applies: native gel shift with B. subtilis DnaG primase. The procedure:
Interactions between G40P and B. subtilis DnaG primase were examined using a native gel shift assay. 10 ug of various G40P constructs were mixed with 10 ug primase in a buffer containing 25 mM TrisHCl pH 8.0, 50 mM NaCl, 5 mM MgCl2, and 1 mM ATP-γ-S and incubated for 30 minutes on ice. The protein mixtures were then analyzed by 6% polyacrymamide native gel electrophoresis at 150 voltage for one hour at 4 degrees C. The gel was stained by Coomassie blue for detection.

Data set [3] deals with 32P-labeled 60-base oligonucleotide annealed to circular M13mp18 ssDNA. Put plainly: Helicase assay. The following applies: for helicase activity (in words): compared with wt G40P. In kind it is biochemical. The procedure:
The substrate for the helicase assay was prepared by annealing a ^32P-labeled ssDNA (a 60-base oligonucleotide) to the circular M13mp18 ssDNA. This oligonucleotide has 35 nucleotides annealed to the M13 DNA, leaving a 25-nucleotide 5′ overhang. The substrate DNA was incubated with various amounts of different G40P mutant proteins in the presence or absence of primase at 37 degrees C. for 30 minutes in a buffer containing 20 mM Tris-HCl (pH 7.5), 5 mM ATP, 10 mM MgCl2, 1 mM DTT, and 50 mM NaCl. The reaction was terminated by adding a stop solution containing 100 mM EDTA, 0.5% SDS, and 50% glycerol. Samples were analyzed on a 12% native polyacrylamide gel in 1 M Tris/borate/EDTA running buffer. The unwinding of the substrate DNA was detected by autoradiography.

Data set [4] deals with G40P point mutant mt4.

B1: G40P N-terminal fragment N171 (other)
chain: MNPEEKTVMLYNEYAEQAVLGSILTEPELIKECPLTPEHFSPGKHFNIYFTMQDLDRKGQSVDFTSIAARVGEKLPQLGGFGYLTELAASVASTTTFKQHCQTVSEYFQKRKAISIAQQIIENVNESDDGPVKPIQEAVSELMEIEASGTDDDDGSIDEALVTVYEEIESA
notes: Contains only the N-globe and α-hairpin domains; Limits inferred from the name; Behaved like a monomer in gel filtration
In the case of B1, the binding result in data set [1] is “no binding”. Further, the primase binding result in data set [2] is on record as “no detectable primase binding”.

B2: G40P N-terminal deletion mutant ΔN129 (enzyme)
chain: GPVKPIQEAVSELMEIEASGTDDDDGSIDEALVTVYEEIESADGNITGVPSGFTELDRMTYGYKRRNFVLIAARPSMGKTAFALKQAKNMSDNDDVVNLHSLEMGKKENIKRLIVTAGSINAQKIKAARRDFASEDWGKLSMAIGEISNSNINIFDKAGQSVNYIWSKTRQTKRKNPGKRVIVMIDYLQLLEPAKANDSRTNQISQISRDLKKMARELDVVVIALSQLSRQVEQRQDKRPMLSDLRESGQLEQDADIIEFLYRDDYYDKESESKNIVEVIIAKHRDGPVGTVSLAFIKEYGNFVNLERRFDDR
notes: Forms hexamers in gel filtration; also called G40P-Δ129; G40P truncated monomer
As for B2, in data set [1], the binding result is listed as “no binding”. Moreover, the “helicase activity (in words)” value in data set [3] is recorded as “no detectable helicase activity”. For the same molecule, the primase binding entry in data set [2] was “devoid of primase binding”.

B3: G40P N-terminal deletion mutant ΔN112 (enzyme)
chain: AISIAQQIIENVNESDDGPVKPIQEAVSELMEIEASGTDDDDGSIDEALVTVYEEIESADGNITGVPSGFTELDRMTYGYKRRNFVLIAARPSMGKTAFALKQAKNMSDNDDVVNLHSLEMGKKENIKRLIVTAGSINAQKIKAARRDFASEDWGKLSMAIGEISNSNINIFDKAGQSVNYIWSKTRQTKRKNPGKRVIVMIDYLQLLEPAKANDSRTNQISQISRDLKKMARELDVVVIALSQLSRQVEQRQDKRPMLSDLRESGQLEQDADIIEFLYRDDYYDKESESKNIVEVIIAKHRDGPVGTVSLAFIKEYGNFVNLERRFDDR
notes: Limits inferred from the name, by analogy with ΔN129 = residues 130-442; Forms hexamers in gel filtration
Turning to B3, the binding result in data set [1] is given as “no binding”. The “helicase activity (in words)” value in data set [3] is listed as “no detectable helicase activity”. Also, in data set [2], the primase binding result was “devoid of primase binding”.

B4: B. subtilis DnaG primase (protein)
chain: T1 sequence (looked up)
As for B4, the “primase-mediated stimulation of the ATPase and helicase activity of G40P” value in data set [4] was “mt4 displayed much reduced primase-mediated stimulation of the ATPase and helicase activity of G40P”.

B5: G40P N-terminal deletion mutant ΔN108 (enzyme)
chain: QKRKAISIAQQIIENVNESDDGPVKPIQEAVSELMEIEASGTDDDDGSIDEALVTVYEEIESADGNITGVPSGFTELDRMTYGYKRRNFVLIAARPSMGKTAFALKQAKNMSDNDDVVNLHSLEMGKKENIKRLIVTAGSINAQKIKAARRDFASEDWGKLSMAIGEISNSNINIFDKAGQSVNYIWSKTRQTKRKNPGKRVIVMIDYLQLLEPAKANDSRTNQISQISRDLKKMARELDVVVIALSQLSRQVEQRQDKRPMLSDLRESGQLEQDADIIEFLYRDDYYDKESESKNIVEVIIAKHRDGPVGTVSLAFIKEYGNFVNLERRFDDR
notes: as for B3
For B5, in data set [1], the binding result is reported as “no binding”. Further, the “helicase activity (in words)” value in data set [3] is reported as “no detectable helicase activity”. For the same molecule, in data set [2], the primase binding result is “devoid of primase binding”.

B6: G40P N-terminal deletion mutant ΔN92 (enzyme)
chain: STTTFKQHCQTVSEYFQKRKAISIAQQIIENVNESDDGPVKPIQEAVSELMEIEASGTDDDDGSIDEALVTVYEEIESADGNITGVPSGFTELDRMTYGYKRRNFVLIAARPSMGKTAFALKQAKNMSDNDDVVNLHSLEMGKKENIKRLIVTAGSINAQKIKAARRDFASEDWGKLSMAIGEISNSNINIFDKAGQSVNYIWSKTRQTKRKNPGKRVIVMIDYLQLLEPAKANDSRTNQISQISRDLKKMARELDVVVIALSQLSRQVEQRQDKRPMLSDLRESGQLEQDADIIEFLYRDDYYDKESESKNIVEVIIAKHRDGPVGTVSLAFIKEYGNFVNLERRFDDR
notes: Lacks the N-globe and keeps an intact α-hairpin; Forms hexamers in gel filtration
As for B6, the binding result in data set [1] is on record as “no binding”. Also, the “helicase activity retained, of the wt activity” value in data set [3] (absence of primase, relative to full-length (wt) G40P) is given as roughly 66%. Moreover, the primase binding entry in data set [2] is reported as “devoid of primase binding”.

B7: G40P N-terminal fragment N149 (other)
chain: MNPEEKTVMLYNEYAEQAVLGSILTEPELIKECPLTPEHFSPGKHFNIYFTMQDLDRKGQSVDFTSIAARVGEKLPQLGGFGYLTELAASVASTTTFKQHCQTVSEYFQKRKAISIAQQIIENVNESDDGPVKPIQEAVSELMEIEASG
notes: as for B1
In the case of B7, the binding result in data set [1] is on record as “no binding”. In data set [2], the primase binding entry is given as “no detectable primase binding”.

The values above are taken from patent US20090215075A1, “THREE-DIMENSIONAL STRUCTURE OF A DNAB-FAMILY R[…] (G40P), USES THEREOF, AND METHODS FOR […]-BACTERIAL PATHOGENS BY […] HELICASES AND THE INTERACTIONS OF DNAB HELICASE WITH PRIMASE” (priority 2007, published 2009).
